Results on 21 variants are retold here after the RNAGym collection of RNA variant scans (doi:10.1073/pnas.2313332121).

The labels stand for the following.
B1: TPR t1 (parent)
chain: GACCAAUCUGCCCUCAGAGCUCGAGAACAUCUUCGGAUGCAGAGGAGGCAGGCUUCGGUGGCGCGAUAGCGCCAACGUCCUCAACCUCCAAUGCAUCCCACCACAUGAUGAUGCCUGAAGAGCCUUGGUUUUUUG

The variants in the series derive from B1. Description: polymerase ribozyme fitness, log enrichment relative to wild type (log ratio); higher = more active; in vitro selection for triplet polymerase activity. Put shortly: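 Libraries of mutants in each subunit of a heterodimeric triplet polymerase ribozyme were generated by PCR and transcribed. In triplicate, each went through one in vitro selection round: annealing with biotinylated primer, partner subunit and triplets; frozen incubation at −7 °C; gel excision of extended constructs; streptavidin-bead capture; RT-PCR. Fitness, taken from Illumina sequencing of input and output libraries, is the logarithm of a genotype's enrichment over wild-type enrichment, averaged across replicates with inverse-variance weights. The logarithm is base 2, and genotypes needed ≥10 input reads and ≥1 read per output to be kept.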
Take GACCAAUCUGCCCUCAGAGCUCGAGAACAUCUUCGGAUGCAGAGGAGGCAGGCUUCGGUGCCGCGAUAGCGCCAACGUCCUCAACCUCCAAUGCAUCCCACCACAUGAUGAUGCCUGAUGAGCCUUGGUUUUUUG [G61C A119U]: the “polymerase ribozyme fitness (log ratio)” value is -1.89.

For GACCAAUCUGCCCUCAGAGCUCGAGAACAUCUUCGGAUGCAGAGGAGGCAGGCUUCGGUGCCGCGAUAGCGCCAACGUCCUCAACCUCCAAUGCAUCCCACCACAUGAUGAUGCCUGAGGAGCCUUGGUUUUUUG [G61C A119G], the “polymerase ribozyme fitness (log ratio)” value is -0.986.

With GACCAAUCUGCCCUCAGAGCUCGAGAACAUCUUCGGAUGCAGAGGAGGCAGGCUUCGGUGCCGCGAUAGCGCCAACGUCCUCAACCUCCAAUGUAUCCCACCACAUGAUGAAGCCUGAAGAGCCUUGGUUUUUUG [G61C C94U U112A], the “polymerase ribozyme fitness (log ratio)” value was -1.52.

As to GACCAAUCUGCCCUCAGAGCUCGAGAACAUCUUCGGAUGCAGAGGAGGCAGGCUUCGGUGCCGCGAUAGCGCCAACGUCAUCAACCUCCAAUGCAUCCCACCACAUGAGGAUGCCUGAAGAGCCUUGGUUUUUUG [G61C C80A U109G], the “polymerase ribozyme fitness (log ratio)” value was -6.27.

Turning to GACCAAUCUGCCCUCAGAGCUCGAGAACAUCUUCGGAUGCAGAGGAGGCAGGCUUCGGUGCCGCGAUAGCGCCAACGUCCUCAACCUCCAAUGCAUCCCACUACAUGAUGAUGCCUGAAGAACAUUGGUUUUUUG [G61C C102U G122A C124A], the “polymerase ribozyme fitness (log ratio)” value is -3.47.

As to GACCAAUCUGCCCUCAGAGCUCGAGAACAUCUUCGGAUGCAGAGGAGGCAGGCUUCGGUGCCGCGAUAGCGCCAACGUCCUCAACCUCCAAUGCAUCCUACCACAUGAUGCUGCCUGAAGAGCCUUGGUUUUUUG [G61C C99U A111C], the “polymerase ribozyme fitness (log ratio)” value was -5.26.

As for GACCAAUCUGCCCUCAGAGCUCGAGAACAUCUUCGGAUGCAGAGGAGGCAGGCUUCGGUGCCGCGAUAGCGCCAACGUCAUCAACCUCCAAUGCAUCCCAACACAUGAUAAGGCUUGAAGAGCCUUGGUUUUUUG [G61C C80A C101A G110A U112G C115U], the “polymerase ribozyme fitness (log ratio)” value is -8.21.

On to GACCAAUCUGCCCUCAGAGCUCGAGAACAUCUUCGGAUGCAGAGGAGGCAGGCUUCGGUGCCGCGAUAGCGACAACGUCCUCAACCUCCAAUGCAUCCCAACACAUGAUGAUGCCUGAAUAGACUUGGUUUUUUG [G61C C72A C101A G120U C123A], for which the “polymerase ribozyme fitness (log ratio)” value was -0.675.

Take GACCAAUCUGCCCUCAGAGCUCGAGAACAUCUUCGGAUGCAGAGGAGGCAGGCUUCGGUGCCGCGAUAGCGCCAGCGUCCGCAACCUCCAAUGCAUCCCACCACAUGAUGAUGCCUGAAGAGCCUUGGUUUUUUG [G61C A75G U81G]: the “polymerase ribozyme fitness (log ratio)” value was -4.25.

As for GACCAAUCUGCCCUCAGAGCUCGAGAACAUCUUCGGAUGCAGAGGAGGCAGGCUUCGGUGCCGCGAUAGCGCCAACGUGCUCAACUUCCAAUGCAUCCCACCACAUGAUGAUGCCUGAAGAGCCUUGGUUUUUUG [G61C C79G C86U], the “polymerase ribozyme fitness (log ratio)” value was -1.95.

GACCAAUCUGCCCUCAGAGCUCGAGAACAUCUUCGGAUGCAGAGGAGGCAGGCUUCGGUGCCGCGAUAGCGCCAACGUCCUUAACCUCCAAUGCAUCCCACCACAUGAUGAUGCCUAAAGAGCCUUGGUUUUUUG [G61C C82U G117A]: the “polymerase ribozyme fitness (log ratio)” value was -2.78.

With GACCAAUCUGCCCUCAGAGCUCGAGAACAUCUUCGGAUGCAGAGGAGGCAGGCUUCGGUGCCGCGAUAGCGCCAACGUCCUCAGCCUCCAAUGCAUCCCACCACAUGAGGAUGCCUGAAGAGCCUUGGUUUUUUG [G61C A84G U109G], the “polymerase ribozyme fitness (log ratio)” value is -6.69.

In the case of GACCAAUCUGCCCUCAGAGCUCGAGAACAUCUUCGGAUGCAGAGGAGGCAGGCUUCGGUGCCGCGAUAGCGCCAACGUCCUCAACCUCCAUUGCAUCCCACCACAUGAUGAUGCCUGAAGAGCCUUGGUUUUUUG [G61C A91U], the “polymerase ribozyme fitness (log ratio)” value is -4.64.

In the case of GACCAAUCUGCCCUCAGAGCUCGAGAACAUCUUCGGAUGCAGAGGAGGCAGGCUUCGGUGCCGCGAUAGCGCCAACGUUCUCAACCUCCAAUGCAUCCCACCACAUGAUGAUGCCUGAAGAGCCUUGGUUUUUUG [G61C C79U], the “polymerase ribozyme fitness (log ratio)” value is -1.46.

Take GACCAAUCUGCCCUCAGAGCUCGAGAACAUCUUCGGAUGCAGAGGAGGCAGGCUUCGGUGCCGCGAUAGCGCCAUCGUCCUCACCCUCCAAUGCCUCCCACCACAUGAUGAUGCCUGAAGAGCCUUGGUUUUUUG [G61C A75U A84C A95C]: the “polymerase ribozyme fitness (log ratio)” value was -1.21.

Take GACCAAUCUGCCCUCAGAGCUCGAGAACAUCUUCGGAUGCAGAGGAGGCAGGCUUCGGUGCCGCGAUAGCGCCAACGUCCUCAACCUACAAUGCAUCCCACCACAUGAUGAUGCCUUAAGAGCCUUGGUUUUUUG [G61C C88A G117U]: the “polymerase ribozyme fitness (log ratio)” value was -5.25.

For GACCAAUCUGCCCUCAGAGCUCGAGAACAUCUUCGGAUGCAGAGGAGGCAGGCUUCGGUGCCGCGAUAGCGCCAACGUCCUCAACCUCCAAUGAAUCCCACCACAUGAUGAUGCCUGAAGAGCCUUGGUUGUUUG [G61C C94A U131G], the “polymerase ribozyme fitness (log ratio)” value was -2.91.

Turning to GACCAAUCUGCCCUCAGAGCUCGAGAACAUCUUCGGAUGCAGAGGAGGCAGGCUUCGGUGCCGCGAUAGCGCCAACGUCCUCAACCUCCAAUGUAUCCCACCACAUGAUGAUGCUUGAAGGGCCUUGGUUUUUUG [G61C C94U C115U A121G], the “polymerase ribozyme fitness (log ratio)” value was -4.32.

Consider GACCAAUCUGCCCUCAGAGCUCGAGAACAUCUUCGGAUGCAGAGGAGGCAGGCUUCGGUGCCGCGAUAGCGCUAACGUCCUCAACCUCCAAUGCAUCCCACCACAUGAUGAUGCCUGAAGAGCCUUGGUUUUUUG [G61C C73U], for which the “polymerase ribozyme fitness (log ratio)” value is -2.31.

As for GACCAAUCUGCCCUCAGAGCUCGAGAACAUCUUCGGAUGCAGAGGAGGCAGGCUUCGGUGCCGCGAUAGCGCCAACGUCCUCAACCUCCAAUGCAUCCCACCACUUGAUGAUGCCUGAAGAGCCUUGGUUUUUUG [G61C A105U], the “polymerase ribozyme fitness (log ratio)” value is -3.67.

With GACCAAUCUGCCCUCAGAGCUCGAGAACAUCUUCGGAUGCAGAGGAGGCAGGCUUCGGUGCCGCGAUAGCGCCAACGUCCUCAACCUCCAAUGCAUCCCACCACCUGAUGAUGCCUGAAGAGCCUUGGUUUUUUG [G61C A105C], the “polymerase ribozyme fitness (log ratio)” value is -4.76.
